Experimental data published in US20110104713A1, “PRODUCTS AND PROCESSES FOR MODULATING PEPTIDE-PEPTIDE BINDING DOMAIN INTERACTIONS” (priority 2002, published 2011).

What was measured:
[1] = target: T1, GST-Plk1 (full-length) (Homo sapiens, UniProt P53350); assay: Plk1 kinase assay (32P-incorporation into casein) with peptide activation; format: biochemical; details: 250 μM peptide pre-incubated 5 minutes at room temperature; three independent experiments
T1 construct: SF9 cells infected with baculoviral GST-Plk1 (full-length) were lysed; made in house; host or cells: SF9 insect cells (baculovirus)
T1 sequence (P53350 whole entry): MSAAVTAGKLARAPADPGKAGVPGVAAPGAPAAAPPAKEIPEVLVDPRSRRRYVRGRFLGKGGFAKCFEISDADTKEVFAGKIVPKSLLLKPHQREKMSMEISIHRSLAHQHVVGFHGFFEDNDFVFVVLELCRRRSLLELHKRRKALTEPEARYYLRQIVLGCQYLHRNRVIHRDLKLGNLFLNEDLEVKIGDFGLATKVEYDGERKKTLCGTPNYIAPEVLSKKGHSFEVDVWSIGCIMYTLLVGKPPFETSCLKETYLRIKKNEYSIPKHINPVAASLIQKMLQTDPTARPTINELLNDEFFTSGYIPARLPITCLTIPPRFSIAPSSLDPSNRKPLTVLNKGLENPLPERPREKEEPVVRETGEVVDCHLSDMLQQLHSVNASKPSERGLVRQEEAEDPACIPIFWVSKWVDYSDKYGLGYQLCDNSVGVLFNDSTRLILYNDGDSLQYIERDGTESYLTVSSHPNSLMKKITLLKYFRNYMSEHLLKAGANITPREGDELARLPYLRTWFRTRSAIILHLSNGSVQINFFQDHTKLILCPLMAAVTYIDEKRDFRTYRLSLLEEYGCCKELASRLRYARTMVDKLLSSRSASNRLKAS
Experimental: SF9 cells infected with baculoviral GST-Plk1 (full-length) were lysed in 20 mM Hepes/KOH (pH 7.5), 135 mM NaCl, 1% NP40, 5 mM EGTA, 5 μM 13-mercaptoethanol, 35 mM NaF, 0.5 mM Na3VO4, 20 mM β-glycerolphosphate, 3 μM microcystin, 1 μM okadaic acid, 10 μg/mL pepstatin, 10 μg/mL leupeptin, and 10 μg/mL aprotinin. Lysates were incubated for 2 hours at 4° C. with glutathione beads, which were subsequently washed five times with 20 mM Hepes/KOH (pH 7.5), 415 mM NaCl, 0.1% CHAPS, 5 mM EGTA, 5 μM β-mercaptoethanol, 35 mM NaF, and 0.5 mM Na3VO4 at 4° C. Bound proteins were eluted with a buffer containing 30 mM glutathione, 50 mM Hepes/KOH (pH 8.0), 25 mM NaCl, 2 mM MgCl2, 1 mM EGTA, and 5 μM β-mercaptoethanol and dialyzed against 10 mM Hepes, 10 mM NaCl, 1 mM EGTA, 1 mM DTT for 3 hours at 4° C. Kinase reactions were performed in 20 mM Hepes/KOH (pH7.5), 15 mM KCl, 10 mM MgCl2, 1 mM EGTA, 100 µM ATP, 5 μCi γ-[^32P]-ATP, 1 mM DTT, and […] casein for 15 minutes at 30° C. Reaction aliquots were removed at various time points, added to sample buffer, and boiled to arrest phosphorylation. ^32P-incorporation into casein was determined by SDS-PAGE electrophoresis, autoradiography, and densitometry using ImageQuant software (Molecular Dynamics). […]

[2] = target: T2, GST-Plk-1 PBD (residues 326-603) interaction with mitotic phosphoproteins (Homo sapiens, UniProt P53350); assay: Peptide competition of GST-Plk-1 PBD pull-down of MPM-2 mitotic phosphoproteins from HeLa lysates; format: binding; details: 320 μM peptide, 45 minutes at 4° C., nocodazole-arrested HeLa lysates
T2 construct: GST-Plk-1 (residues 326-603) was immobilized on glutathionine beads; made in house; host or cells: E. coli BL21
T2 sequence (P53350 326-603): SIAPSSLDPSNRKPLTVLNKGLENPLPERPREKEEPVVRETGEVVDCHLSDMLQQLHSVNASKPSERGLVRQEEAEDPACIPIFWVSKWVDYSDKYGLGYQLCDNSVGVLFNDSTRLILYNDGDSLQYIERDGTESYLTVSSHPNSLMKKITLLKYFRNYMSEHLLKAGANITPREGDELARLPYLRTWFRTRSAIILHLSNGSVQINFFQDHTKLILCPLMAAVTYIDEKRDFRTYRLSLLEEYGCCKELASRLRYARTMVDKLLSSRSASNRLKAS
Experimental: HeLa cells were arrested in interphase or G2/M by treatment with aphidicolin (5 μg/mL) or nocodazole (50 ng/mL), respectively, for 16 hours. Cells were lysed in 25 mM Tris/HCl (pH 7.5) containing 125 mM NaCl, 0.5% NP-40, 5 mM EDTA, 2 mM DTT, 4 μg/mL pepstatin, 4 μg/mL aprotinin, 4 μg/mL leupeptin, 1 mM Na3VO4, 50 mM NaF, and […] microcystin, and 150 μgs of lysate incubated with 10 μL of glutathione agarose beads containing 2-5 μg of GST-Plk-1 (residues 326-603), GST-Pin1, or GST for 30 minutes at 4° C. Beads were washed four times with lysis buffer. Precipitated proteins were eluted in sample buffer and detected by blotting with monoclonal MPM-2 (Upstate Biotechnology, Inc.) or polyclonal anti-Cdc25C (Santa Cruz Biotechnology, Santa Cruz, Calif.). For peptide competition experiments, GST-Plk-1 (residues 326-603) was immobilized on glutathionine beads and preincubated with 320 μM of PoloBoxtide-optimal, −8T, or −7V for 45 minutes at 4° C. For binding experiments involving mutant cdc25C, HeLa cells were transfected with wild-type and mutated versions of HA-tagged Cdc25C in pECE using Superfect (Qiagen, Valencia, Calif.). Nocodazole (50 ng/mL) was added seventeen hours after transfection and cells incubated for an additional 14 hours to arrest them in G2/M. Point mutations of Cdc25C were constructed using the QuickChange site-directed mutagenesis system (Stratagene) and verified by DNA sequencing.

**Q.** For “MAGPMQ-S-T-P-LNGAKK (MAGPMQSTPLNGAKK) [PoloBoxtide-8T]”, which “enhancement of Plk1 kinase activity (rate of casein phosphorylation), factor” value [1] is on record?
**A.** had no effect

**Q.** What about the “effect of peptide pre-incubation on GST-Plk-1 PBD binding of MPM-2 epitopes” value [2] of the same substance?
**A.** not

**Q.** What about the “effect of peptide pre-incubation on GST-Plk-1 PBD binding of MPM-2 epitopes” value ([2]; listed as 8T) of the same substance?
**A.** had no effect
